Earlier results in paper PMC3589424.

Molecular target: CD47 (Homo sapiens) (UniProt Q08722)
Chain of UniProt Q08722 (Q08722 19-323): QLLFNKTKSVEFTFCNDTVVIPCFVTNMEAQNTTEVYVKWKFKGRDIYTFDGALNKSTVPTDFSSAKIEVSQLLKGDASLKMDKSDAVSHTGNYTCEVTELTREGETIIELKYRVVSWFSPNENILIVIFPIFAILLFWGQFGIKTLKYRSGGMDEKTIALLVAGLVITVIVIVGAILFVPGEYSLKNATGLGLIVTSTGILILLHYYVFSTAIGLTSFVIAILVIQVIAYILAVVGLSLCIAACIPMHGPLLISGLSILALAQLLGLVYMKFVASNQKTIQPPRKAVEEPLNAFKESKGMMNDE

Kd: 2000 nM
Substance: SIRPα (from UniProt P78324)
